{
  "source": "patent US10543284B2",
  "about": "“Anti-c-Met antibody and anti-c-Met antibody-cytotoxic drug conjugate and pharmaceutical use thereof” (Suzhou Suncadia Biopharmaceuticals Co., Ltd., priority 2015, dated 2020)",
  "molecules": {"B1": {"name": "Ab-9: humanized anti c-Met antibody: heavy chain sequence of SEQ ID NO: 23 and light chain sequence of SEQ ID NO: 26 (antibody)", "heavy": "QVTLKESGPVLVKPTETLTLTCTVSGFSLPNYGVHWVRQPPGKALEWLAVIWSGGSTNYAAAFVSRLRISKDTSKSQVVFTMNNMDPVDTATYYCARNHDNPYNYAMDYWGQGTTVTVSSASTKGPSVFPLAPCSRSTSESTAALGCLVKDYFPEPVTVSWNSGALTSGVHTFPAVLQSSGLYSLSSVVTVPSSNFGTQTYTCNVDHKPSNTKVDKTVERKCCVECPPCPAPPVAGPSVFLFPPKPKDTLMISRTPEVTCVVVDVSHEDPEVQFNWYVDGVEVHNAKTKPREEQFNSTFRVVSVLTVVHQDWLNGKEYKCKVSNKGLPAPIEKTISKTKGQPREPQVYTLPPSREEMTKNQVSLTCLVKGFYPSDIAVEWESNGQPENNYKTTPPMLDSDGSFFLYSKLTVDKSRWQQGNVFSCSVMHEALHNHYTQKSLSLSPGK", "light": "DIVLTQSPASLAVSPGQRATITCRANKSVSTSTYNYLHWYQQKPGQPPKLLIYLASNLASGVPARFSGSGSGTDFTLTINPVEANDTANYYCQHSRDLPPTFGQGTKLEIKRTVAAPSVFIFPPSDEQLKSGTASVVCLLNNFYPREAKVQWKVDNALQSGNSQESVTEQDSKDSTYSLSSTLTLSKADYEKHKVYACEVTHQGLSSPVTKSFNRGEC", "modifications": "Ab-9 heavy chain; Ab-9 light chain"}},
  "key": {"[1]": {"system": "H441 cells", "experiment": "Agonist test: H441 cell migration", "type": "cell-based, human", "settings": "Antibody 20 μg/ml; migration affected by HGF (200 ng/ml) set as 100%", "from_the_text": "If anti c-Met antibodies have agonist activity, the migration ability of cells could be affected. The H441 cell line expressing c-Met is used in the invention to evaluate the ability of c-Met antibodies to affect cell migration. H441 cells (ATCC, Cat No.: HTB-174) were resuspended to 500,000 cells/ml in RPMI 1640 medium (GIBCO, Cat No.: 11835-030) which contains 10% (v/v) FBS (GIBCO, Cat No.: 10099-141) and penicillin-streptomycin (GIBCO, Cat No.: 15070-063). The resuspended H441 cells were added to a 12-well culture plate (Costar, Cat No. 3513) at 1 ml/well, and were cultured for 3 days at 37° C. in 5% CO2. Cells were washed twice with PBS, and RPMI 1640 medium containing 0.5% FBS was added, and the plate was cultured for 16 hours at 37° C. in 5% CO2. The bottom of each well was scratched with 5 ml tips, and the plate was washed once with medium containing low concentration of FBS, and 1 ml of RPMI 1640 medium containing a low concentration of serum was added. The plate was marked, photos were taken for randomly selected scratch areas under an inverted microscope at 4× magnification. This time was set as the starting point. […] The percentage of cell migration was measured as the migration distance relative to the starting point divided by the migration distance of the test group relative to the starting point, and then multiplied by 100."}, "[2]": {"system": "c-Met tyrosine residue 1349", "experiment": "Agonist test: c-Met phosphorylation in A549 cells", "type": "cell-based, human", "settings": "Antibody 20 μg/ml; activation by HGF (200 ng/ml) set as 100%", "method": "The binding of HGF to c-Met activates both tyrosine phosphorylation of the c-Met molecule and the c-Met signaling pathway. Therefore, the activation of c-Met by HGF was used as a positive control of the agonist experiment, and human lung cancer cell line […] was used to evaluate the induced phophorylation of c-Met tyrosine residue 1349.\nA549 cells were suspended in solution containing Ham's F12K, 2 mM glutamine (Invitrogen, #21127-022), and 10% (v/v) FBS (GIBCO, #10099141). 0.2 mL of cell suspension was taken and added to a 96-well plate (Corning, #3599), and the cell concentration was 60000 cells/well. The plate was incubated for 24 hours under 5% CO2 at 37° C. After 24 hours, the media in the 96-well plate was discarded, and 100 μl low serum medium (Ham's F12K+2 mM glutamine+0.5% FBS) was added. The cells were starved for 6 hours under 5% CO2 at 37° C. Antibodies were diluted using the above low serum medium to a final concentration of 20 μg/ml. The HGF concentration in the positive control was 200 ng/ml. The plate was incubated for 15 minutes at 37° C. […] After cell lysis, c-Met tyrosine phosphorylation was detected by ELISA. […] Data was read by a […] microplate reader (Supplier: Moleculer Devices; Model: MNR0643; Equip ID: TMRP001). […]"}},
  "data": [
    {"molecule": "B1", "values": [
      {"measurement": "H441 migration (%)", "setting": "[1]", "result": 53, "unit": "%"},
      {"measurement": "Activation of c-Met phosphorylation (%)", "setting": "[2]", "result": 29.9, "unit": "%"}
    ]}
  ]
}
